Measured values: PMC10397247

What was measured:
Assay in all cases: two-hybrid library CCmax;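 also: natural log of median RNA to DNA barcode read ratio; higher means stronger binding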
[1] = biological target: T1, 4H930-AA; conditions: mean of both orientations
T1 chain: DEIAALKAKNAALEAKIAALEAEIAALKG

[2] = biological target: T2, 4H2698-AA; conditions: mean of both orientations
T2 chain: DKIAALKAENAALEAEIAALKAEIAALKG

[3] = biological target: T3, 4H458-AA; conditions: mean of both orientations
T3 chain: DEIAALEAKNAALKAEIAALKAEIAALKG

[4] = biological target: T4, 4H570-AA; conditions: mean of both orientations
T4 chain: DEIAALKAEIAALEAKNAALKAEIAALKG

[5] = biological target: T5, 4H1864-AA
T5 chain: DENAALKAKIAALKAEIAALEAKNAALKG

[6] = biological target: T6, 4H536-AA; conditions: mean of both orientations
T6 chain: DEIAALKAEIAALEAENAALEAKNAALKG

[7] = biological target: T7, 4H2253-AA; conditions: mean of both orientations
T7 chain: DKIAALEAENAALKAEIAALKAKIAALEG

[8] = biological target: T8, 4H2330-AA; conditions: mean of both orientations
T8 chain: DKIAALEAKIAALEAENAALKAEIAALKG

[9] = biological target: T9, 4H3381-AA; conditions: mean of both orientations
T9 chain: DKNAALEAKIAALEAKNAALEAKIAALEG

[10] = biological target: T10, 4H710-AA; conditions: mean of both orientations
T10 chain: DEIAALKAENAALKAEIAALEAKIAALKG

[11] = biological target: T11, 4H2274-AA; conditions: mean of both orientations
T11 chain: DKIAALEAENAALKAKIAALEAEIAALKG

[12] = biological target: T12, 4H3120-AA; conditions: mean of both orientations
T12 chain: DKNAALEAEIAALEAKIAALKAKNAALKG

[13] = biological target: T13, 4H2725-AA; conditions: mean of both orientations
T13 chain: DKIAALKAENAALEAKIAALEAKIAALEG

[14] = biological target: T14, 4H310-AA; conditions: mean of both orientations
T14 chain: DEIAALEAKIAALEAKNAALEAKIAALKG

[15] = biological target: T15, 4H1877-AA; conditions: mean of both orientations
T15 chain: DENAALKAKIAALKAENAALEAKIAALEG

[16] = biological target: T16, 4H3009-AA; conditions: mean of both orientations
T16 chain: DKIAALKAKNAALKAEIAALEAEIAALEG

[17] = biological target: T17, 4H2649-AA; conditions: mean of both orientations
T17 chain: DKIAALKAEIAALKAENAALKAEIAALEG

[18] = biological target: T18, 4H909-AA; conditions: mean of both orientations
T18 chain: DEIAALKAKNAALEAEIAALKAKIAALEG

[19] = biological target: T19, 4H3016-AA; conditions: mean of both orientations
T19 chain: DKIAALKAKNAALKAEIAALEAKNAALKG

[20] = biological target: T20, 4H3395-AA; conditions: mean of both orientations
T20 chain: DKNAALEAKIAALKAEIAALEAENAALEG

[21] = biological target: T21, 4H94-AA; conditions: mean of both orientations
T21 chain: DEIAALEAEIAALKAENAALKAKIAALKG

[22] = biological target: T22, 4H797-AA; conditions: mean of both orientations
T22 chain: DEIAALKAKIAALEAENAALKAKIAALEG

[23] = biological target: T23, 4H3697-AA; conditions: mean of both orientations
T23 chain: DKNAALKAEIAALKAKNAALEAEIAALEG

[24] = biological target: T24, 4H2438-AA; conditions: mean of both orientations
T24 chain: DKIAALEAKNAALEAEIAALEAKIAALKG

[25] = biological target: T25, 4H2865-AA; conditions: mean of both orientations
T25 chain: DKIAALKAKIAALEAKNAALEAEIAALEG

[26] = biological target: T26, 4H2162-AA; conditions: mean of both orientations
T26 chain: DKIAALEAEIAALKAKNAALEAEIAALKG

[27] = biological target: T27, 4H2473-AA; conditions: mean of both orientations
T27 chain: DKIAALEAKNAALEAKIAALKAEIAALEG

[28] = biological target: T28, 4H850-AA; conditions: mean of both orientations
T28 chain: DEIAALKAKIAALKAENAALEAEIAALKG

[29] = biological target: T29, 4H3590-AA; conditions: mean of both orientations
T29 chain: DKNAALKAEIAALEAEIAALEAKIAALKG

[30] = biological target: T30, 4H745-AA; conditions: mean of both orientations
T30 chain: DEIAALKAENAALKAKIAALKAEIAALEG

[31] = biological target: T31, 4H3410-AA; conditions: mean of both orientations
T31 chain: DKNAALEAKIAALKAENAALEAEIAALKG

[32] = biological target: T32, 4H3165-AA; conditions: mean of both orientations
T32 chain: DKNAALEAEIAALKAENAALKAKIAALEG

[33] = biological target: T33, 4H3130-AA; conditions: mean of both orientations
T33 chain: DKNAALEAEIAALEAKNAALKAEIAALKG

[34] = biological target: T34, 4H2389-AA; conditions: mean of both orientations
T34 chain: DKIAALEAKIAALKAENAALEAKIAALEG

[35] = biological target: T35, 4H891-AA; conditions: mean of both orientations
T35 chain: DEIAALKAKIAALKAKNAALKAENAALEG

[36] = biological target: T36, 4H3865-AA; conditions: mean of both orientations
T36 chain: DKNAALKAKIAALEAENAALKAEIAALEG

[37] = biological target: T37, 4H485-AA; conditions: mean of both orientations
T37 chain: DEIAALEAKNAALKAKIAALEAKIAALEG

[38] = biological target: T38, 4H2109-AA; conditions: mean of both orientations
T38 chain: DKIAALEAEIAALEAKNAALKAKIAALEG

[39] = biological target: T39, 4H629-AA; conditions: mean of both orientations
T39 chain: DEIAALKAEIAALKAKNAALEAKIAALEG

[40] = biological target: T40, 4H3753-AA; conditions: mean of both orientations
T40 chain: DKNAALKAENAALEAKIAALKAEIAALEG

B1: 4H1864-AA (peptide)
chain: DENAALKAKIAALKAEIAALEAKNAALKG
An interaction score [1] of -1.41, an interaction score [2] of -0.664 and an interaction score [3] of -1.21 were found for B1 in this work. It also gave an interaction score [4] of -0.57, an interaction score [5] of 0.981 and an interaction score [6] of 0.437. For the same binder, the interaction score [7] was -1.42, the interaction score [8] was -1.49 and the interaction score [9] was -1.63. It also gave an interaction score [10] of 1.32, an interaction score [11] of -1.75 and an interaction score [12] of 0.774. The interaction score [13] was -0.938, the interaction score [14] was -1.48 and the interaction score [15] was -1.45. For the same binder, the interaction score [16] was -0.905, the interaction score [17] was -1.17 and the interaction score [18] was -1.38. The interaction score [19] was -1.47, the interaction score [20] was 0.321 and the interaction score [21] was -0.986. The interaction score [22] was -2.09, the interaction score [23] was -1.57 and the interaction score [24] was 0.434. The interaction score [25] was -1.19, the interaction score [26] was -1.67 and the interaction score [27] was -1.22. For the same binder, the interaction score [28] was 0.223, the interaction score [29] was 1.23 and the interaction score [30] was -1.35. The interaction score [31] was -1.5, the interaction score [32] was -1.47 and the interaction score [33] was -0.716. It also gave an interaction score [34] of 0.806, an interaction score [35] of -0.897 and an interaction score [36] of -1.65. The interaction score [37] was -0.878, the interaction score [38] was -0.599 and the interaction score [39] was -1.52. The interaction score [40] was 0.231.
